From US20240269303A1 (RESEARCH DEVELOPMENT FOUNDATION, published 2024)

What was measured:
LGR5 [1] = molecular target: T1, LGR5 (UniProt O75473 22-907, limits assumed); test: cell-based or functional assay
T1 sequence (looked up): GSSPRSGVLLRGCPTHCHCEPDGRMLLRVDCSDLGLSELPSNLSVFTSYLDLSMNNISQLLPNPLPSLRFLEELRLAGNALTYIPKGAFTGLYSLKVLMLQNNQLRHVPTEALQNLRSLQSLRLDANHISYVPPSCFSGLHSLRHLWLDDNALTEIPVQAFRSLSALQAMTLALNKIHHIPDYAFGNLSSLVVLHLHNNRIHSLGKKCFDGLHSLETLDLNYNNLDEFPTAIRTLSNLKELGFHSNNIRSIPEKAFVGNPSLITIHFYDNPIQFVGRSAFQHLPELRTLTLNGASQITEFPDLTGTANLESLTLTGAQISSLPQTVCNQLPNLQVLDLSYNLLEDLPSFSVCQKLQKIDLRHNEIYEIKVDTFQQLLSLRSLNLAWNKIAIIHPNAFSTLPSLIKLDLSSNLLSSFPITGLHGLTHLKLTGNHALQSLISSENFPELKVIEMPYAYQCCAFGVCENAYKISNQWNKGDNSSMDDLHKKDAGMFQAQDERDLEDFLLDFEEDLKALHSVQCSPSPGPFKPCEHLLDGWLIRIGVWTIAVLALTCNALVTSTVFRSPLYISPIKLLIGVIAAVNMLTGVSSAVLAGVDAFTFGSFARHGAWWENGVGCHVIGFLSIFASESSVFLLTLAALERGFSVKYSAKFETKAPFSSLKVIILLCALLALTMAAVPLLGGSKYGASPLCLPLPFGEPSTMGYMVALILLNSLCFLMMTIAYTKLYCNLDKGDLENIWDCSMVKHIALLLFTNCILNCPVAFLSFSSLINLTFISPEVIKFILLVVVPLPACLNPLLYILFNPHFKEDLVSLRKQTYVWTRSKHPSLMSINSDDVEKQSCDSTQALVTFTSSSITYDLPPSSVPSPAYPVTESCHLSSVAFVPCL

LGR5 [2] = molecular target: T1, LGR5; test: cell-based or functional assay; remark: listed apart in the source

B1: FcF2-PNU159682 (Fc fusion)
chain: EPKSCDKTHTCPPCPAPELLGGPSVFLFPPKPKDTLMISRTPEVTCVVVDVSHEDPEVKFNWYVDGVEVHNAKTKPREEQYNSTYRVVSVLTVDHHDWLNGKEYKCKVSNKALPAPIEKTISKAKGQPREPQVYTLPPSRDELTKNQVSLTCLVKGFYPSDIAVEWESNGQPENNYKTTPPVLDSDGSFFLYSKLTVDKSRWQQGNVFSCSVMHEALHSHYTQKSLSLSPGKGGGGSGGGGSSRGIKGKRQRRISAEGSQACAKGCELCSEVNGCLKCSPKLFILLERNDIRQVGVCLPSCPPGYFDARNPDMNKCIKCKIEHCEACFSHNFCTKCKEGLYLHKGRCYPACPEGSSAANGTMECSSPGGGGSGGGGSLPET
modifications: PNU159682 (anthracycline derivative) joined to the C-terminus by sortase A; the linker is not described
- IC50 of growth inhibition, OVCAR8/EV cells (LGR5-poor control) (LGR5 [1]): > 3 nM
- IC50 of growth inhibition, OVCAR8/LGR5 cells (LGR5 [1]): 0.3 nM
- IC50 ratio, OVCAR8/EV to OVCAR8/LGR5 (LGR5 [1]): ~10 ratio

B2: FcF2Δlinker-MMAE (Fc fusion)
chain: EPKSCDKTHTCPPCPAPELLGGPSVFLFPPKPKDTLMISRTPEVTCVVVDVSHEDPEVKFNWYVDGVEVHNAKTKPREEQYNSTYRVVSVLTVDHHDWLNGKEYKCKVSNKALPAPIEKTISKAKGQPREPQVYTLPPSRDELTKNQVSLTCLVKGFYPSDIAVEWESNGQPENNYKTTPPVLDSDGSFFLYSKLTVDKSRWQQGNVFSCSVMHEALHSHYTQKSLSLSPGKSRGIKGKRQRRISAEGSQACAKGCELCSEVNGCLKCSPKLFILLERNDIRQVGVCLPSCPPGYFDARNPDMNKCIKCKIEHCEACFSHNFCTKCKEGLYLHKGRCYPACPEGSSAANGTMECSSPLPETGGG
modifications: C-terminal GGG carries valine-citrulline-PAB-MMAE
- IC50 (read off the curve), growth inhibition of OVCAR8/LGR5 cells [panel ExpiCHO FcF2-MMAE linker deletion batch #1] (LGR5 [2]): ~4 nM

B3: FcST4-MMAE (Fc fusion)
chain: EPKSCDKTHTCPPCPAPELLGGPSVFLFPPKPKDTLMISRTPEVTCVVVDVSHEDPEVKFNWYVDGVEVHNAKTKPREEQYNSTYRVVSVLTVDHHDWLNGKEYKCKVSNKALPAPIEKTISKAKGQPREPQVYTLPPSRDELTKNQVSLTCLVKGFYPSDIAVEWESNGQPENNYKTTPPVLDSDGSFFLYSKLTVDKSRWQQGNVFSCSVMHEALHSHYTQKSLSLSPGKGGGGSGGGGSSRGIKGKRQRRISAEGSQACAKGCELCSEVNGCLKCSPKLFILLERNDIRQVGVCLPSCPPGYFDARNPDMNKCIKCKIEHCEACFSHNFCTKCKEGLYLHKGRCYPACPEGSSAANGTMECSSPGGGGSGGGGSSRGIKGKRQRRISAEGSQACAKGCELCSEVNGCLKCSPKLFILLERNDIRQVGVCLPSCPPGYFDARNPDMNKCIKCKIEHCEACFSHNFCTKCKEGLYLHKGRCYPACPEGSSAANGTMECSSPGGGGSGGGGSLPETGGG
modifications: C-terminal GGG carries val-cit-PAB-MMAE (sortase reaction with G3-val-cit-PAB-MMAE; GG-8xHis removed)
- IC50 of cytotoxicity (OVCAR8 empty vector and LGR5-overexpressing cells; the cell line of each end is not stated) (LGR5 [1]): 1.9 to 3.8 nM

B4: FcF2-deruxtecan (Fc fusion)
chain: EPKSCDKTHTCPPCPAPELLGGPSVFLFPPKPKDTLMISRTPEVTCVVVDVSHEDPEVKFNWYVDGVEVHNAKTKPREEQYNSTYRVVSVLTVDHHDWLNGKEYKCKVSNKALPAPIEKTISKAKGQPREPQVYTLPPSRDELTKNQVSLTCLVKGFYPSDIAVEWESNGQPENNYKTTPPVLDSDGSFFLYSKLTVDKSRWQQGNVFSCSVMHEALHSHYTQKSLSLSPGKGGGGSGGGGSSRGIKGKRQRRISAEGSQACAKGCELCSEVNGCLKCSPKLFILLERNDIRQVGVCLPSCPPGYFDARNPDMNKCIKCKIEHCEACFSHNFCTKCKEGLYLHKGRCYPACPEGSSAANGTMECSSPGGGGSGGGGSLPETGGGC
modifications: C-terminal Cys of GGGC carries maleimide-GGFG-deruxtecan
- IC50 of growth inhibition, OVCAR8/EV cells (LGR5-poor control; CCK8, 120 h) (LGR5 [1]): 9.04 nM
- IC50 of growth inhibition, OVCAR8/LGR5 cells (CCK8, 120 h) (LGR5 [1]): 0.753 nM
- selectivity, OVCAR8/LGR5 against OVCAR8/EV (LGR5 [1]): 12 fold
